Tests used:
[1] = target: T1, hCD16b-NA2 (FcgRIIIb-NA2) (human, UniProt O75015 17-200, limits assumed); assay: SPR, FcgR analyte titration on protein A captured dAb-Fc
T1 construct: not shown: C-terminal his-tag
Method: (§1) A second SPR assay for testing the interaction between antibodies or dAb-Fc proteins with FcgR proteins is a protein A capture method. These experiments are also performed on either a Biacore™ T100 or Biacore™ T200 instrument (GE Healthcare) at 25° C. For these studies, protein A is immobilized on flow cells 1-4 of a CM5 sensor chip using standard ethyl (dimethylaminopropyl) carbodiimide (EDC)/N-hydroxysuccinimide (NHS) chemistry, with ethanolamine blocking, in a running buffer of 10 mM HEPES pH 7.4, 150 mM NaCl, 3 mM EDTA, 0.05% surfactant p20, to a density of ˜3000 RU.

[2] = target: T2, hCD32a-H131 (FcgRIIa-H131) (human, UniProt P12318 36-218); assay: as above
T2 construct: not shown: C-terminal his-tag
T2 sequence (looked up): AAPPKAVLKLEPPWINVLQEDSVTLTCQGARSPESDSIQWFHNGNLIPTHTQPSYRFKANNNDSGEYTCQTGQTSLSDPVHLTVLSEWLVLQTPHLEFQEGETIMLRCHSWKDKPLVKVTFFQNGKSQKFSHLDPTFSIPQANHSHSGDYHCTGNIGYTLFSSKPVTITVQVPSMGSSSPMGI
Method: as §1

hCD32b (FcgRIIb) = target: T3, hCD32b (FcgRIIb) (human, UniProt P31994 46-217); assay: as above
T3 construct: not shown: C-terminal his-tag
T3 sequence (looked up): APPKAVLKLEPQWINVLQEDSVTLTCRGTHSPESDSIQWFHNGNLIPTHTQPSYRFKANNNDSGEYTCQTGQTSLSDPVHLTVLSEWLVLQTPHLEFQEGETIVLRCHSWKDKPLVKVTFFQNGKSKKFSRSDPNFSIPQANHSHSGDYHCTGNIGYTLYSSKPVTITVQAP
Method: as §1

[3] = target: T4, hCD32a-R131 (FcgRIIa-R131) (human, UniProt P12318 36-218); assay: as above
T4 construct: not shown: C-terminal his-tag
T4 sequence (looked up): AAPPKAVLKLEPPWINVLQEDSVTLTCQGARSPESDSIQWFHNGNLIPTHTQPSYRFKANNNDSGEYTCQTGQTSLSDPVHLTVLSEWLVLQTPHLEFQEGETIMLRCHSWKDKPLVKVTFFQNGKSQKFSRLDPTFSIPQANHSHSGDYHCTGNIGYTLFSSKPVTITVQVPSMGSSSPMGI
Method: as §1

[4] = target: T5, hCD16a-V158 (FcgRIIIa-V158) (human, UniProt P08637 17-208); assay: as above
T5 construct: not shown: C-terminal his-tag
Method: as §1

hCD40-Fc = target: T6, hCD40-Fc (human, UniProt P25942 21-193); assay: SPR, immobilized hCD40-Fc, dAb-Fc analyte (avidity)
T6 construct: not shown: Fc part of hCD40-Fc, not described

human GITR = target: T7, human GITR (human, UniProt Q9Y5U5 26-241); assay: cell-based or functional assay
T7 sequence (looked up): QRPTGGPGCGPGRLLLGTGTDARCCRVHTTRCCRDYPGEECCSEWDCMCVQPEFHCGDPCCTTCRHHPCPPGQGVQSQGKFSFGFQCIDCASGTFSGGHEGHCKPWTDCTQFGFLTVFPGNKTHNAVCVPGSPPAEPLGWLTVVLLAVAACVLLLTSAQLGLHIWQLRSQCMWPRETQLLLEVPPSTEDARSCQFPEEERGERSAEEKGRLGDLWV

T6 sequence (P25942 21-193): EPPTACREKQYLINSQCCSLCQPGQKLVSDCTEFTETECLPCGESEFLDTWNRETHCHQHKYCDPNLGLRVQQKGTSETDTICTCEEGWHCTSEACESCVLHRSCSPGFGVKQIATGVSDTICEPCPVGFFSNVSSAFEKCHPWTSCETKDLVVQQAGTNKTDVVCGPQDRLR
T5 sequence (P08637 17-208 F176V limits assumed): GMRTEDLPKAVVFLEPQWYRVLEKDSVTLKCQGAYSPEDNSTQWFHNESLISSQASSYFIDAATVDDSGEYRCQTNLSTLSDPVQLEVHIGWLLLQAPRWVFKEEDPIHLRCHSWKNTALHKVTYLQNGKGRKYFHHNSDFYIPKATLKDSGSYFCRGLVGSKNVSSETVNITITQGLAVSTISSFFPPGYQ
T1 sequence (O75015 17-200 N65S limits assumed): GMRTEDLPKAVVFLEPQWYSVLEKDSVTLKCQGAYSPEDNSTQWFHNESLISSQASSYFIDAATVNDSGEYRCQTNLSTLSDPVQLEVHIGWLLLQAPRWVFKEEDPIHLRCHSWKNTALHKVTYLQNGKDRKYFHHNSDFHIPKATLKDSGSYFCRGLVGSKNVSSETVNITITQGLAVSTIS

B1: 3h56-269-IgG1.1f (Fc fusion)
chain: EVQLLESGGGLVQPGGSLRLSCAASGFTFRDYEMWWVRQAPGKGLERVSAINPQGTRTYYADSVKGRFTISRDNSKNTLYLQMNSLRAEDTAVYYCAKLPFRFSDRGQGTLVTVSSASTEPKSCDKTHTCPPCPAPEAEGAPSVFLFPPKPKDTLMISRTPEVTCVVVDVSHEDPEVKFNWYVDGVEVHNAKTKPREEQYNSTYRVVSVLTVLHQDWLNGKEYKCKVSNKALPSSIEKTISKAKGQPREPQVYTLPPSREEMTKNQVSLTCLVKGFYPSDIAVEWESNGQPENNYKTTPPVLDSDGSFFLYSKLTVDKSRWQQGNVFSCSVMHEALHNHYTQKSLSLSPGK
notes: anti-CD40 dAb-Fc
**Q.** With B1 as the binder, how does the Kd [1] read?
**A.** Its Kd is > 5 µM.

**Q.** And the Kd [2]?
**A.** The Kd was > 5 µM.

**Q.** What about the Kd (hCD32b (FcgRIIb)) of the same binder?
**A.** Its Kd is > 5 µM.

**Q.** And the Kd [3]?
**A.** Its Kd is > 5 µM.

**Q.** And the Kd [4]?
**A.** Its Kd is > 5 µM.

B2: 3h56-269-IgG1.3f (Fc fusion)
chain: EVQLLESGGGLVQPGGSLRLSCAASGFTFRDYEMWWVRQAPGKGLERVSAINPQGTRTYYADSVKGRFTISRDNSKNTLYLQMNSLRAEDTAVYYCAKLPFRFSDRGQGTLVTVSSASTEPKSCDKTHTCPPCPAPEAEGAPSVFLFPPKPKDTLMISRTPEVTCVVVDVSHEDPEVKFNWYVDGVEVHNAKTKPREEQYNSTYRVVSVLTVLHQDWLNGKEYKCKVSNKALPAPIEKTISKAKGQPREPQVYTLPPSREEMTKNQVSLTCLVKGFYPSDIAVEWESNGQPENNYKTTPPVLDSDGSFFLYSKLTVDKSRWQQGNVFSCSVMHEALHNHYTQKSLSLSPGK
notes: dAb-Fc fusion protein
**Q.** How did the KDapparent (hCD40-Fc) turn out when B2 was run?
**A.** Its KDapparent is < 1 nM.

B3: 3h56-269-IgG1.1f (Fc fusion)
chain: EVQLLESGGGLVQPGGSLRLSCAASGFTFRDYEMWWVRQAPGKGLERVSAINPQGTRTYYADSVKGRFTISRDNSKNTLYLQMNSLRAEDTAVYYCAKLPFRFSDRGQGTLVTVSSASTEPKSCDKTHTCPPCPAPEAEGAPSVFLFPPKPKDTLMISRTPEVTCVVVDVSHEDPEVKFNWYVDGVEVHNAKTKPREEQYNSTYRVVSVLTVLHQDWLNGKEYKCKVSNKALPSSIEKTISKAKGQPREPQVYTLPPSREEMTKNQVSLTCLVKGFYPSDIAVEWESNGQPENNYKTTPPVLDSDGSFFLYSKLTVDKSRWQQGNVFSCSVMHEALHNHYTQKSLSLSPGK
notes: dAb-Fc fusion protein
**Q.** B3 was tested. Which KDapparent (hCD40-Fc) did it give?
**A.** Its KDapparent is < 1 nM.

B4: GITR.6.G2 (antibody, human IgG2, kappa)
heavy: QVQLVESGGGVVQPGRSLRLSCAASGFTFSSYGMHWVRQAPGKGLEWVAVIWYEGSNKYYADSVKGRFTISRDNSKNTLYLQMNSLRAEDTAVYYCARGGSMVRGDYYYGMDVWGQGTTVTVSSASTKGPSVFPLAPCSRSTSESTAALGCLVKDYFPEPVTVSWNSGALTSGVHTFPAVLQSSGLYSLSSVVTVPSSNFGTQTYTCNVDHKPSNTKVDKTVERKCCVECPPCPAPPVAGPSVFLFPPKPKDTLMISRTPEVTCVVVDVSHEDPEVQFNWYVDGVEVHNAKTKPREEQFNSTFRVVSVLTVVHQDWLNGKEYKCKVSNKGLPAPIEKTISKTKGQPREPQVYTLPPSREEMTKNQVSLTCLVKGFYPSDIAVEWESNGQPENNYKTTPPMLDSDGSFFLYSKLTVDKSRWQQGNVFSCSVMHEALHNHYTQKSLSLSPGK
light: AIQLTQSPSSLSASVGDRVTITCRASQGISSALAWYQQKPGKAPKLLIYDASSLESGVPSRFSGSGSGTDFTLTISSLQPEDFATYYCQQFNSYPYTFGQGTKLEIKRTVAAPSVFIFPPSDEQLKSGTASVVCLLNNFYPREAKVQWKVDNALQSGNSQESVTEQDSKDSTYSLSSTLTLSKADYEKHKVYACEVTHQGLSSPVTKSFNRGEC
**Q.** B4 was tested. Which “NFKB signaling in TCR activated CD4+ T cells, EC50” value (human GITR) did it give?
**A.** The value was 0.0128 µM.

**Q.** What about the “NFKB signaling in TCR activated CD4+ T cells, Emax” value (human GITR) of the same binder?
**A.** Its value is 69%.

**Q.** What about the “NFKB signaling in TCR activated CD8+ T cells, EC50” value (human GITR) of the same binder?
**A.** Its value is 0.009 µM.

**Q.** And the “NFKB signaling in TCR activated CD8+ T cells, Emax” value (human GITR)?
**A.** The value was 85%.
